Source: patent US20220340636A1

How the values were obtained:
[1] = target: human insulin receptor (hIR) (human) (UniProt P06213); experiment: cell-based or functional assay
[2] = target: human insulin receptor (hIR) (human) (UniProt P06213); experiment: binding to hIR, assay not described at this place; reference human insulin
[3] = target: human IR-B overexpressed on NIH 3T3 mouse fibroblast cells (human) (UniProt P06213); experiment: cell-based or functional assay
[4] = target: solubilised immuno-captured human IR (isoform B) (human) (UniProt P06213); experiment: competition binding on human IR-B (FIG. 2); reference PTM-free sCon-Ins G1
[5] = target: solubilised immuno-captured human IR (isoform B) (human) (UniProt P06213)

“B10E, B20 biphenyl DOI analogue (ligand)” was tested, and the fold higher potency than N10E, B20Y DOI [1] was 3 fold, the fold increase of the potency of DOI [1] was 100 fold and the percent of the potency of human insulin [1] was 10%.

Work on Con-Ins G1 (ligand) yielded a fold less affinity than human insulin [2] of 30 fold.

In the case of “DOI analogue with B10 Glu and B20 Tyr (ligand)”, the fold increase in potency compared to B20 Tyr alone [1] is reported as 5 fold.

Work on hIns[TyrB15, TyrB20, DOI] (ligand) yielded a fold increased potency in hIR activation (against DOI) [1] of 5 fold and a fold more active than hIns[DOI], Akt phosphorylation assay [3] of 5 fold.

Substance sCon-Ins G1 (ligand) has a fold more active than the PTM-free analogue [4] of 4 fold, a fold less active than hIns [5] of 30 fold and a log [IC50 (nM)] [5] of 1.24 log nM.

In the case of B20 Tyr DOI analogue (ligand), the fold increased potency in hIR activation (against DOI) [1] is reported as 5 fold.
